2 molecules from patent US20110086089A1, “USE OF P27KIP1 FOR THE PREVENTION AND TREATMENT OF HEART FAILURE” (UNIVERSITY HEALTH NETWORK, priority 2008, published 2011) can be followed below.

The subject of one assay is WT mice. Briefly: Chronic Ang II infusion for 14 days with daily TAT.protein injection, WT mice. In kind it is in vivo. The conditions noted are these: for FS / LVEDD / LVEF / LVESD / PWD: WT, echocardiography at 14 days. An excerpt:
FIG. 5 is a series of graphs, blots and cell stainings showing CK2-alpha-prime is important for Ang II action in vivo. […] Transduction of recombinant active CK2-alpha-prime evokes cardiac hypertrophy in the absence of Ang II. (A) Heart-weight corrected for body-weight (left panel) and Masson-stain of myocardial cross sections (right panel). Mean±s.e.m., n=6-8. #P<0.01 vs sham saline. *P<0.01 vs sham saline. Scale bar, 2 mm. (B) Cell size analysis of adult cardiac myocytes isolated from 8-weeks-old mice. One hundred cells from three different mice were analyzed per group. Mean±s.e.m. #P<0.01 vs sham saline. *P<0.01 vs sham saline. **P<0.01 vs Ang II. (c) Determination of ANF/BNP mRNA levels by qRT-PCR. Mean±s.e.m., n=6-8. *P<0.05 vs sham saline. **P<0.05 vs Ang II. #P<0.05 vs sham saline. (D) Visualization of ectopic TAT-conjugated p27deltaPi by indirect immunofluorescence microscopy employing anti-His tag antibodies. Scale bar, 200 μm. (E) Left ventricular extracts (2-3 mg) were subjected to anti-CK2-alpha-prime immunocomplex kinase assays employing histone H1 substrate. Aliquots of kinase reactions were subjected to immunoblotting using antibodies as indicated on the left (top and middle panel). Levels of endogenously expressed or transduced proteins in total left ventricular heart tissue samples (60 μg) were analyzed by immunoblotting (bottom panel). Experiments to (E) were done twice with similar results.
To define whether CK2-alpha-prime -directed p27 turnover plays a role in vivo, the inventors chronically infused Ang II^72 and intraperitoneally injected recombinant TAT-conjugated CK2-alpha-prime and p27 variants in WT and p27^−/− mice (FIG. 9). […] These mice had normal LVEDD and LVESD when compared to Ang II-infused littermates (Table 3). […] CK2-alpha-prime activity and p27 destabilization were similar to their non-transduced Ang II-treated siblings (FIG. 5E).
(§1) Spontaneously beating cardiomyocytes from heart ventricles of neonatal rats were cultured and subjected to treatment with angiotensin II (Ang II). DMAT (2-dimethylamino-4,5,6,7-tetrabromo-1H-benzimidazol), DMSO, lactacystin and LLM were obtained from Calbiochem. Ang II was purchased from Sigma. Animal usage was in accordance with approved institutional animal care guidelines. Age-matched male WI C57BL/6 and p27^−/− mice were used in this study. For results shown in FIGS. 1 to 9: Ang II was chronically infused subcutaneously by osmotic pumps (model 2000, Alzet) at a dose of 1.4 μg/kg per minute for 14 days. TAT.proteins (10 mg/kg) were injected intraperitoneally once daily for 14 days. For results shown in FIGS. 10 to 12: Ang II was chronically infused subcutaneously by osmotic pumps (model 2000, Alzet) at a dose of 0.7 μg/kg per minute for 16 days. TAT.proteins (20 mg/kg) were injected intraperitoneally once daily for 8 days starting at day 8. Thoracic aortic banding (TAB) and pressure gradient measurements were performed as described^39.

The subject of the next assay is p27 KO mice. Briefly: Chronic Ang II infusion for 14 days with daily TAT.protein injection, p27 KO mice. In kind it is in vivo. Particulars: p27 KO, echocardiography at 14 days. The protocol: (A) Heart-weight corrected for body-weight (left panel) and Masson-stain of myocardial cross sections (right panel). Mean±s.e.m., n=6-8. *P<0.01 vs sham saline. **P<0.01 vs Ang II. Scale bar, 2 mm. (B) Cell size analysis of adult cardiac myocytes isolated from 8-weeks-old mice. One hundred cells from three different mice were analyzed per group. Mean±s.e.m. *P<0.01 vs sham saline. **P<0.01 vs Ang II. (C) Determination of ANF/BNP mRNA levels by qRT-PCR. Mean±s.e.m., n=6-8. *P<0.01 vs sham saline. **P<0.01 vs Ang II. (D) CK2-alpha-prime-dependent kinase activity determined in whole left ventricular tissue samples. One typical result of two independent experiments is shown. (E, F) Ang II action induces apoptosis in p27^−/− mice. (E) Quantification of apoptotic cardiac myocytes (white arrowheads) by in situ TUNEL and GATA4 immunofluorescence histochemistry of left ventricular specimen. Mean±s.e.m., n=4. *P<0.01 vs sham saline. **P<0.05 vs sham saline. #P<0.01. (F) Determination of caspase 3 activity in total left ventricular heart tissue samples. Mean±s.e.m., n=4. *P<0.05 vs sham saline. #P<0.01. (G) Model for CK2-alpha-prime-dependent regulation of cardiac hypertrophy through phosphorylation of p27. Hypertrophic signals stimulate CK2-alpha-prime kinase that phosphorylates p27 at S83 and T187. Phosphorylation of p27 impairs its ability to bind to and inhibit […] activity. Subsequently, p27 is proteasomally degraded allowing hypertrophic growth to proceed.
Next, the inventors examined the effect of transduced proteins on cardiac hypertrophy in p27^−/− mice. Elimination of p27 gene function in these animals completely abrogated the ability of kd.CK2-alpha-prime to block cardiac hypertrophy (FIG. 6A-D). In contrast, hypertrophic responses to Ang II were abolished by p27deltaPi injections. Thus, reconstitution of p27 protein abundance in the myocardium of p27^−/− mice was accompanied by inhibition of Ang II action. Moreover, the inventors observed a marked increase in the number of TUNEL-positive cardiomyocyte nuclei in Ang II-infused p27^−/− mice (FIG. 6E,F) as compared to the WT controls. […] This was in direct contrast to the effect seen by ectopic kd.CK2-alpha-prime consistent with the inventors' previous work showing that CK2 is cardioprotective^73,74.
as §1

The test system of assay [1] is p27 phosphorylation at S83 and T187 in cardiomyocytes. Briefly: p27 phosphorylation at S83 and T187 in Ang II-treated cardiomyocytes (Western blot). The class given is cell-based, rat. Particulars: Ang II 4 h; lentiviruses 72 h; DMAT 20 μM pre-incubated 30 min; TAT-conjugated CK2-alpha-prime 2.5 μg/ml 1 h. How it is done: FIG. 2 is a series of graphs and blots showing Ang II triggers CK2-alpha-prime-dependent phosphorylation of p27 on S83 and T187 in cardiomyocytes. (A) p27 is a substrate of CK2-alpha-prime. […] In vitro kinase assays employing recombinant wt.p27 (1 μg) or phosphorylation site mutants of p27 as substrates were incubated with recombinant CK2-alpha-prime/beta (200 ng). Aliquots of the reaction mixtures were resolved on SDS-PAGE, electrotransferred to nitrocellulose membranes, and the amount of incorporated radioactive [^32P}-label into p27 was quantified with a PhosphorImager and ImageJ software. Individual membranes were probed with anti-CK2-alpha-prime, anti-p27 (input), or phosphorylation site specific antibodies to p27. […] Samples were resolved on SDS-PAGE, transferred to nitrocellulose-membranes, and the amount of incorporated radioactive label into histones was quantified with a PhosphorImager and ImageJ. The input amount of each CK2-alpha-prime and p27 protein used in the kinase reaction mixtures was monitored by immunoblot analysis employing anti-His. […] Biochemically fractionated extracts corresponding to 4×10^5 cells per lane were analyzed by immunoblotting employing antibodies as indicated on the left. […]

[2] abbreviates: Ang infusion 1.4 μg/kg per minute 14 days, TAT.protein 10 mg/kg i.p. once daily.
Where [3] appears, read: saline infusion, TAT.protein 10 mg/kg i.p. once daily 14 days.
[4] abbreviates: saline infusion, TAT.protein 10 mg/kg i.p. once daily 14 days, 8-weeks of age.

Marks after values point to notes of the source that are not given here.

B1: p27ΔC: TAT-conjugated p27 deficient in binding to CK2-alpha-prime (p27.1-86), serving as negative control (protein)
chain: MSNVRVSNGSPSLERMDARQADHPKPSACRNLFGPVDHEELTRDLEKHCRDMEEASQRKWNFDFQNHKPLEGKYEWQEVEKGSLPE
modifications: left off: small tags and cut ends
Take B1: the “cardiac hypertrophy to Ang II (heart/body weight ratio, myocyte area, ANF/BNP mRNA)” value with WT mice (Ang II-treated WT mice, TAT.proteins 10 mg/kg i.p. once daily 14 days) was “No anti-hypertrophic effect”. Moreover, in the assay on WT mice (setting [2]), the FS turned out to be 54 ± 3.2%, the LVEDD was determined as 4.5 ± 0.2 mm, the LVEF is 81 ± 3.5% and the LVESD worked out at 2.3 ± 0.1 mm. For the same molecule, in the assay with WT mice (setting [2]), the PWD is reported as 1.2 ± 0.2 mm. In addition, in the assay on WT mice (setting [3]), the LVEDD was 3.6 ± 0.2 mm, the LVEF is 69 ± 2.1%, the LVESD is 1.4 ± 0.1 mm and the PWD was determined as 0.7 ± 0.1 mm. In the assay on WT mice (setting [4]), this molecule gave an FS of 41 ± 1.8%. Besides, in the assay on p27 KO mice (setting [2]), the FS is reported as 56 ± 3.9%, the LVEDD is given as 4.6 ± 0.2 mm, the LVEF came out at 82 ± 3.8% and the LVESD amounted to 2.3 ± 0.2 mm. This molecule displayed a PWD in the assay on p27 KO mice (setting [2]) of 1.1 ± 0.1 mm. In the assay with p27 KO mice (setting [3]), this molecule displayed an FS of 42 ± 2.4%, an LVEDD of 3.7 ± 0.2 mm, an LVEF of 73 ± 2.6% and an LVESD of 1.3 ± 0.1 mm. Besides, the PWD in the assay with p27 KO mice (setting [3]) worked out at 0.6 ± 0.2 mm.

B2: CK2-α′: recombinant active TAT-conjugated CK2-alpha-prime protein with NES of HIV-1 Rev (protein)
chain: MPGPAAGSRARVYAEVNSLRSREYWDYEAHVPSWGNQDDYQLVRKLGRGKYSEVFEAINITNNERVVVKILKPVKKKKIKREVKILENLRGGTNIIKLIDTVKDPVSKTPALVFEYINNTDFKQLYQILTDFDIRFYMYELLKALDYCHSKGIMHRDVKPHNVMIDHQQKKLRLIDWGLAEFYHPAQEYNVRVASRYFKGPELLVDYQMYDYSLDMWSLGCMLASMIFRREPFFHGQDNYDQLVRIAKVLGTEELYGYLKKYHIDLDPHFNDILGQHSRKRWENFIHSENRHLVSPEALDLLDKLLRYDHQQRLTAKEAMEHPYFYPVVKEQSQPCADNAVLSSGLTAAR
modifications: left off: small tags and cut ends
With B2, in assay [1], the “S83/T187 phosphorylation of p27 in cardiomyocytes” value is “rescued the detrimental impact of siCK2-alpha-prime on p27 phosphorylation”. Moreover, the “cardiac hypertrophy in the absence of Ang II” value with WT mice (WT mice, saline, TAT.protein 10 mg/kg i.p. once daily) is given as “did induce cardiac hypertrophy”. For the same molecule, in the assay on WT mice (setting [2]), the FS was 55 ± 3.9* %, the LVEDD is 4.6 ± 0.1* mm, the LVEF is on record as 82 ± 2.8* % and the LVESD is reported as 2.4 ± 0.1* mm. Moreover, in the assay on WT mice (setting [2]), the PWD is 1.3 ± 0.1* mm. In addition, in the assay with WT mice (setting [3]), the LVEDD was 4.5 ± 0.2^# mm, the LVEF is given as 83 ± 3.1^# %, the LVESD was 2.4 ± 0.2^# mm and the PWD is listed as 1.3 ± 0.2^# mm. Besides, in the assay on WT mice (setting [4]), the FS is reported as 52 ± 2.0^# %.
